B1: hu9H8-hIgG4 (antibody, V domains shown)
VH: EVQLLESGGGLVQPGGSLRLSCAASGFTFSDYYMYWVRQAPGKGLEWVSQISNGGGNTYYPDTVKGRFTISRDNSKNTLYLQMNSLRAEDTAVYYCSKSYYKYDGWYFDVWGQGTLVTVSS
VL: DIVMTQSPDSLAVSLGERATINCRASESVEYSRTSLIQWYQQKPGQPPKLLIYAASYVESGVPDRFSGSGSGTDFTLTISSLQAEDVAVYYCQQARKVPWTFGQGTKLEIK
notes: Humanised antibody built as IgG4 subtype, expressed in 293 cells; also called 9H8人源化抗体; 人源化抗体9H8
B2: hu8D4-hIgG4 (antibody, part only; not given: Light chain variable domain, constant regions, V domains shown, part only)
VH: QVQLVQSGAEVKKPGASVKVSCKASGYTFTNFWMHWVRQAPGQRLEWIGAIFPGNTDTTYNRKFKDRATLTADTSASTAYMELSSLRSEDTAVYYCTRNHYGLDYWGQGTLVTVSS
B3: 10A10 (antibody, V domains shown)
VH: EVKLVESGGDLVKPGGSLKLSCAASGFTFNYYDISWVRQTPEKRLEWVATISGGGRYTYYLDNVQGRFTISRDNAKNILYLQMNSLRSDDTALYFCASPYEGAMDYWGQGTSVTVSS
VL: DIVMTQSHKFMSTSIGDGVNITCKASQDVGTAVAWYQQKPGQSPKLLNKWASTRHTGVPDRFTGSGSGTDFTLTINNVQSEDLADYFCQQYSTFPYTFGGGTNLELK
notes: Mouse monoclonal antibody purified from hybridoma supernatant by Protein A; also called 鼠源PD-1单克隆抗体10A10; PD-1杂交瘤抗体10A10
B4: 5H10 (antibody, V domains shown)
VH: EVQLVESGGGLVKPGGSLKLSCAASGFTFSDYGMHWVRQAPEKGLEWVAYISGDSNTIYYADTVKGRFTISRDNAKNTLFLQMTSLRSEDTAMYYCTKRGPYYGYTHYFDYWGQGTTLTVSS
VL: SIVMTQTPKFLLVSAGDRVTMTCKASQSVSNDVVWYQQKPGQSPKLLIYYASKRYTGVPDRFTGNGYGTDFTFTISTVQAEDLAVYFCQQDYSSPWTFGGGTKLEIK
notes: Mouse monoclonal antibody purified from hybridoma supernatant by Protein A; also called 鼠源PD-1单克隆抗体5H10; PD-1杂交瘤抗体5H10
B5: 5F7 (antibody, V domains shown)
VH: EVMLVESGGDLVKPGGSLKLSCAASGFTFSSYMMSWVRQTPEKRLEWVAAISGGGGDTYYPDSVKGRFTISRDNAKNTLYLQMSSLRSEDTALYYCARRVVYAMDCWGQGTSVTVSS
VL: DIQMTQSPASQSASLGESVTITCLASQSIGTWLVWYQQKPGKSPQLLISAATSLADGVPSRFSGSGSGTKFSFKISSLQAEDFVSYYCQQLYIIPWTFGGGTKLEIK
notes: Mouse monoclonal antibody purified from hybridoma supernatant by Protein A; also called 鼠源PD-1单克隆抗体5F7; PD-1杂交瘤抗体5F7
B6: 4B5 (antibody, V domains shown)
VH: EVILVESGGDLVKPGGSLKLSCAASGFTFSSYMMSWVRQTPEKRLEWVATISGGGANTYYLDSMKGRFTISRDNAKNILYLQMSSLRSEDTAFYYCARQSDRGFPYWGQGTLVTVSA
VL: DIQMTQSPASQSASLGESVTITCLASQPIGTWLAWYQQKPGTSPQLLIFAATTLTDGVPSRFSGSGSGTKFSFKISSLQAEDFVSYYCQQFSSIPYTFGGGTRLEIK
notes: Mouse monoclonal antibody purified from hybridoma supernatant by Protein A; also called 鼠源PD-1单克隆抗体4B5; PD-1杂交瘤抗体4B5
B7: 8D4 (antibody, V domains shown)
VH: EVQLQQSGTVLARPGASVKMSCKTSGYTFTNFWMHWVKQRPGQGLDWIGAIFPGNTDTTYNRKFKDKAKLTAVTSASTAYMELSSLTNEDSAVYYCTRNHYGLDYWGQGTSVTVSS
VL: DIVLTQSPASLAVSLGQRATISCRASESVSIHGTHLMHWYQQKPGQPPKLLIYIASNLGSGVPARFSGSGSETDFTLNIHPVEEEDAATYFCQQSIEDPWTFGGGTKLEIK
notes: Mouse monoclonal antibody purified from hybridoma supernatant by Protein A; also called 鼠源PD-1单克隆抗体8D4; PD-1杂交瘤抗体8D4
B8: 9H8 (antibody, V domains shown)
VH: EVKLVESGGGLVQPGGSLKLSCATSGFTFSDYYMYWVRQTPEKRLEWVAQISNGGGNTYYPDTVKGRFTISRDNAKNTLYLQMSRLKSEDTAIYYCSKSYYKYDGWYFDVWGAGTTVTVSS
VL: DIVLTQSPASLAVSLGQRATISCRASESVEYSRTSLIQWYQLKPGQPPKLLIYAASYVESGVPDRFSGSGSGTEFSFNIHPVEEDDIAMYFCQQARKVPWTFGGGTNLEIK
notes: Mouse monoclonal antibody purified from hybridoma supernatant by Protein A; also called 鼠源PD-1单克隆抗体9H8; PD-1杂交瘤抗体9H8

These binders were tested against T1, PD-1 on 293T-PD-1 cells (UniProt Q15116 25-288, limits assumed) (assay: FACS on 293T-PD-1 cells).
T1 construct: whole, on cells; the antibodies are anti-human PD-1
T1 sequence (Q15116 25-288 limits assumed): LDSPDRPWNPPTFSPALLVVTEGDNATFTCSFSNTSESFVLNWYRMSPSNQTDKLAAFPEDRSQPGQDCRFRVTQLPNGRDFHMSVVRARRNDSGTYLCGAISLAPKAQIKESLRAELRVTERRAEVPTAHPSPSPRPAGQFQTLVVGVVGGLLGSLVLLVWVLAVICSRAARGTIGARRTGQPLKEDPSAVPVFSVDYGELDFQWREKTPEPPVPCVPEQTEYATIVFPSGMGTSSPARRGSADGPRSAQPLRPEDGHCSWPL

| EC50 | Binder |
| --- | --- |
| 0.285 µg/mL | B1 |
| 0.311 µg/mL | B2 |

What follows are binders tested against T1, PD-1 on 293T-PD-1 cells (assay: FACS on 293T-PD-1 cells, PE goat anti-mouse detection).

| EC50 | Binder |
| --- | --- |
| 0.0314 µg/mL | B3 |
| 0.0643 µg/mL | B4 |
| 0.0176 µg/mL | B5 |
| 0.04 µg/mL | B6 |
| 0.0443 µg/mL | B7 |
| 0.0203 µg/mL | B8 |

The binders below were run against T2, 人的PD-1胞外区与人Fc融合蛋白(PD-1-ECD-hFc) (human, UniProt Q15116 25-170) (assay: ELISA, PD-1-ECD-hFc coated, goat anti-mouse IgG detection).
T2 construct: extracellular domain; Coated on ELISA plates; also called PD-1-hFc; not shown: human Fc
T2 sequence (Q15116 25-170): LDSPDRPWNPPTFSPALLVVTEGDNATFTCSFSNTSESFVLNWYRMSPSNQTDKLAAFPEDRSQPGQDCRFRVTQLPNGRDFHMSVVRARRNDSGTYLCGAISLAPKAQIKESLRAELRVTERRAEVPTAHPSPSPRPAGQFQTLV

| EC50 | Binder |
| --- | --- |
| 0.00114 µg/mL | B3 |
| 0.00109 µg/mL | B4 |
| 0.00123 µg/mL | B5 |
| 0.00175 µg/mL | B6 |
| 0.00261 µg/mL | B7 |
| 0.000511 µg/mL | B8 |

Each binder was assayed against T3, 人的PD-1胞外区与小鼠Fc融合蛋白(PD-1-ECD-mFc) (human, UniProt Q15116 25-170) (assay: ELISA on coated PD-1-mFc (antigen per legend of figure 6)).
T3 construct: extracellular domain; also called PD-1-mFc; not shown: mouse Fc
T3 sequence (Q15116 25-170): as above

| EC50 | Binder |
| --- | --- |
| 0.00532 µg/mL | B1 |
| 0.0489 µg/mL | B2 |

These binders were tested against T2, 人的PD-1胞外区与人Fc融合蛋白(PD-1-ECD-hFc) (assay: competition ELISA, PD-1-ECD-hFc coated, competitor PD-L1-Biotin).

| IC50 | Binder |
| --- | --- |
| 0.361 µg/mL | B3 |
| 0.339 µg/mL | B4 |
| 0.324 µg/mL | B5 |
| 0.343 µg/mL | B6 |
| 0.37 µg/mL | B7 |
| 0.319 µg/mL | B8 |

What follows are binders tested against T1, PD-1 on 293T-PD-1 cells (assay: competition FACS on 293T-PD-1 cells, competitor PD-L1-biotin (row head prints EC50, title IC50)).

| IC50 | Binder |
| --- | --- |
| 0.0276 µg/mL | B3 |
| 0.0412 µg/mL | B4 |
| 0.0181 µg/mL | B5 |
| 0.0355 µg/mL | B6 |
| 0.0296 µg/mL | B7 |
| 0.00854 µg/mL | B8 |

The binders below were run against T2, 人的PD-1胞外区与人Fc融合蛋白(PD-1-ECD-hFc) (assay: competition ELISA, coated PD-1-hFc (per table title; figure 7 legend says PD-1-mFc), competitor PD-L1-Biotin).

| IC50 | Binder |
| --- | --- |
| 0.332 µg/mL | B1 |
| 0.851 µg/mL | B2 |

Source: patent CN114316047A (DONGDA BIOTECHNOLOGY SUZHOU CO LTD, dated 2022)
